Assay results as given in US20230322953A1 (HARBOUR BIOMED SHANGHAI, published 2023).
Residue numbers refer to the chain shown, from its start.

T1: human BCMA (human, UniProt Q02223 1-184)
T1 construct: whole, on cells; also called hBCMA; TNFRSF17
T1 sequence (looked up): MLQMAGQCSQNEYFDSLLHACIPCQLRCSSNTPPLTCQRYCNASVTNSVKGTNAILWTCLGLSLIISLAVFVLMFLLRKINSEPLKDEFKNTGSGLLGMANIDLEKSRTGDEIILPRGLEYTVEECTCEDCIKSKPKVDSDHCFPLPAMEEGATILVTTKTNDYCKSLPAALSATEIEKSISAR

B1: PR003867 (bispecific antibody, human IgG1, lambda, L234A L235A)
light: QAVVTQEPSLTVSPGGTVTLTCRSSTGAVTTSNYANWVQQKPGQAPRGLIGGTNKRAPWTPARFSGSLLGDKAALTLLGAQPEDEAEYFCALWYSNLWVFGGGTKLTVLGQPKAAPSVTLFPPSSEELQANKATLVCLISDFYPGAVTVAWKADSSPVKAGVETTTPSKQSNNKYAASSYLSLTPEQWKSHRSYSCQVTHEGSTVEKTVAPTECS
heavy: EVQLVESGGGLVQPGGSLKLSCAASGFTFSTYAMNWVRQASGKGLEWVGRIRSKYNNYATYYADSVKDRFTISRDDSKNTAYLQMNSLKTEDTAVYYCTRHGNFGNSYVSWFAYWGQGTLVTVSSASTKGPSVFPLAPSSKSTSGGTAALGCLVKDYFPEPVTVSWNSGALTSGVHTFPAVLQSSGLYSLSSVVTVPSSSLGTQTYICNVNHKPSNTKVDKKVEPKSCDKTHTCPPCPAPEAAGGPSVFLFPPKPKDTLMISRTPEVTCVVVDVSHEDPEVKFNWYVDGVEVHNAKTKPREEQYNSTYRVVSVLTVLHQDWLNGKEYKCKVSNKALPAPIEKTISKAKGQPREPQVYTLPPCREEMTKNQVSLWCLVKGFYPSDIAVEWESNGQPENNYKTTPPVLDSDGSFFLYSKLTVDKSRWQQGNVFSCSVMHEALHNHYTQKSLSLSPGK
chain: EVQLVETGGGLIQPGGSLRLSCAASGFTVSDNYMTWVRQAPGKGLEWVSVIFSGGKTYYADSVKGRFTISRDNAKNTLYLQMNSLRAEDTALYYCARRNYDDTRGTDVFDIWGQGTMVTVSSASEPKSSDKTHTCPPCPAPEAAGGPSVFLFPPKPKDTLMISRTPEVTCVVVDVSHEDPEVKFNWYVDGVEVHNAKTKPREEQYNSTYRVVSVLTVLHQDWLNGKEYKCKVSNKALPAPIEKTISKAKGQPREPQVCTLPPSREEMTKNQVSLSCAVKGFYPSDIAVEWESNGQPENNYKTTPPVLDSDGSFFLVSKLTVDKSRWQQGNVFSCSVMHEALHNHYTQKSLSLSPGK
notes: BCMAxCD3, Fab-Fc-VH (structure 11); CD3 Fab of PR003886, BCMA VH of PR004559; IgG1 knob/hole, LALA
B2: PR003868 (bispecific antibody, human IgG1, lambda, L234A L235A)
light: B1 light
heavy: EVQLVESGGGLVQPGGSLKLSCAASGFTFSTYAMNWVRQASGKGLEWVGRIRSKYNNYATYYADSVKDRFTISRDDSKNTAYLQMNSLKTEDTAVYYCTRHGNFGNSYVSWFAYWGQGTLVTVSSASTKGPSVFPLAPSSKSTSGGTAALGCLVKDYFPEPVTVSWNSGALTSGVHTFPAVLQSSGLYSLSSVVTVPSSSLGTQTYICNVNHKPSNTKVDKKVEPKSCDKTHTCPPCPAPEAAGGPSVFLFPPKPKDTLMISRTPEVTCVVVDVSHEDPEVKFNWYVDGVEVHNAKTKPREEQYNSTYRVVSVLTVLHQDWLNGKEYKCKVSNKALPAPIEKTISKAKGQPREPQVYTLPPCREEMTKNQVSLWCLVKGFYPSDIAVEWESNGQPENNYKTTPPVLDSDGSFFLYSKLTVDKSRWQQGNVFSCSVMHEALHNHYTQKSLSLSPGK
chain: B1 chain with S30Y, Y59V, D102Q
notes: BCMAxCD3, Fab-Fc-VH (structure 11); CD3 Fab of PR003886, BCMA VH of PR004563; IgG1 knob/hole, LALA
B3: PR001994 (bispecific antibody, human IgG1, kappa, L234A L235A)
chain 1: EVQLLESGGGLVQPGGSLRLSCAASGFTFNTYAMNWVRQAPGKGLEWVSRIRSKYNNYATYYADSVKDRFTISRDDSKSTLYLQMNSLRAEDTAVYYCVRHGNFGNSYVSWFAYWGQGTLVTVSSRTVAAPSVFIFPPSDEQLKSGTASVVCLLNNFYPREAKVQWKVDNALQSGNSQESVTEQDSKDSTYSLSSTLTLSKADYEKHKVYACEVTHQGLSSPVTKSFNRGEC
chain 2: QAVVTQEPSLTVSPGGTVTLTCRSSTGAVTTSNYANWVQQKPGQAPRGLIGGTNKRAPWTPARFSGSLLGDKAALTLLGAQPEDEAEYFCALWYSNLWVFGGGTKLTVLSSASTKGPSVFPLAPSSKSTSGGTAALGCLVKDYFPEPVTVSWNSGALTSGVHTFPAVLQSSGLYSLSSVVTVPSSSLGTQTYICNVNHKPSNTKVDKKVEPKSCDKTHTCPPCPAPEAAGGPSVFLFPPKPKDTLMISRTPEVTCVVVDVSHEDPEVKFNWYVDGVEVHNAKTKPREEQYNSTYRVVSVLTVLHQDWLNGKEYKCKVSNKALGAPIEKTISKAKGQPREPQVYTLPPCREEMTKNQVSLWCLVKGFYPSDIAVEWESNGQPENNYKTTPPVLDSDGSFFLYSKLTVDKSRWQQGNVFSCSVMHEALHNHYTQKSLSLSPGK
chain 3: B1 chain with K56N, P238G
notes: BCMAxCD3, Fab(cross VH/VL)-Fc-VH (structure 12); CD3 of PR000511, BCMA VH of PR001046; IgG1 knob/hole, AAG
B4: PR003878 (bispecific antibody, human IgG1, lambda, L234A L235A)
light: B1 light
heavy: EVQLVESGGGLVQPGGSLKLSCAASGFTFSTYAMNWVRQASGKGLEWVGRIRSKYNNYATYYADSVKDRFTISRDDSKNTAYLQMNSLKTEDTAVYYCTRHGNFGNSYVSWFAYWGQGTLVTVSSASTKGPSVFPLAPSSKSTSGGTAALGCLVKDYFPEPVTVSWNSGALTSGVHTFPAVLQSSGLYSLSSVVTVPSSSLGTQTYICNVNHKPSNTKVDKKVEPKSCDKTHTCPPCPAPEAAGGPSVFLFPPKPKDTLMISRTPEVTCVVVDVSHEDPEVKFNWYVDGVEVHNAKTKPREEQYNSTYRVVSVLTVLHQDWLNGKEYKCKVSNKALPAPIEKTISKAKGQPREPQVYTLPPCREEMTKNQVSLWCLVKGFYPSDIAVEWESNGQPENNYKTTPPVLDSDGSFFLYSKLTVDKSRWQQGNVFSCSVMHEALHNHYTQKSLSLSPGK
chain: B1 chain with N32S
notes: BCMAxCD3, Fab-Fc-VH (structure 11); CD3 Fab of PR003886, BCMA VH of PR004573; IgG1 knob/hole, LALA
B5: PR003877 (bispecific antibody, human IgG1, lambda, L234A L235A)
light: B1 light
heavy: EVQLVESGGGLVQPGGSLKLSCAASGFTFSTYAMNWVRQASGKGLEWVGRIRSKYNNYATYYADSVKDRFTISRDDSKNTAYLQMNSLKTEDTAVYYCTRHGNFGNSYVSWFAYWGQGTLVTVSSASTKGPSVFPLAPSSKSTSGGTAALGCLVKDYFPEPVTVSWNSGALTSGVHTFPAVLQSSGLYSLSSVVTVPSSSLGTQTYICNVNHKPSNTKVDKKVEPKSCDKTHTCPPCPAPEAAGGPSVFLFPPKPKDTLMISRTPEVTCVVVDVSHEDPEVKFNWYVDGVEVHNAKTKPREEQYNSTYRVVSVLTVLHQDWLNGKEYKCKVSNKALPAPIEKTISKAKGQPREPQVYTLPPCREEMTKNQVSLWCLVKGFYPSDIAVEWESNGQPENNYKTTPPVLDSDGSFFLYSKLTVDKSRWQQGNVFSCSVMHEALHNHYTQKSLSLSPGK
chain: B1 chain with N32S, Y59V
notes: BCMAxCD3, Fab-Fc-VH (structure 11); CD3 Fab of PR003886, BCMA VH of PR004572; IgG1 knob/hole, LALA
B6: PR003875 (bispecific antibody, human IgG1, lambda, L234A L235A)
light: B1 light
heavy: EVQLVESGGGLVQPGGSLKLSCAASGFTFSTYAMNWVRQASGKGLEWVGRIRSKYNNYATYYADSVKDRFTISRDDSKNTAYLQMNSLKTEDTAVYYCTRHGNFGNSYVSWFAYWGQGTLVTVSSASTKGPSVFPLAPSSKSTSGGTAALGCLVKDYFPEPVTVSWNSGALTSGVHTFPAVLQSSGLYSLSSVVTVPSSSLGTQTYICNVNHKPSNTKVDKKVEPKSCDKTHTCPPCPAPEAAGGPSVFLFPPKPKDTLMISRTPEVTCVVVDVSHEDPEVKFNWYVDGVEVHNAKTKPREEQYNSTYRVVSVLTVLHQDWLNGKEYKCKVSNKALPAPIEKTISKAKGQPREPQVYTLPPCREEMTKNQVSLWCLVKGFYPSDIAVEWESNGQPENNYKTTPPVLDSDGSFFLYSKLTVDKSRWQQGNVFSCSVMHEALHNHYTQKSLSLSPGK
chain: B1 chain with N32A, K56R, D102Q
notes: BCMAxCD3, Fab-Fc-VH (structure 11); CD3 Fab of PR003886, BCMA VH of PR004570; IgG1 knob/hole, LALA
B7: PR003871 (bispecific antibody, human IgG1, lambda, L234A L235A)
light: B1 light
heavy: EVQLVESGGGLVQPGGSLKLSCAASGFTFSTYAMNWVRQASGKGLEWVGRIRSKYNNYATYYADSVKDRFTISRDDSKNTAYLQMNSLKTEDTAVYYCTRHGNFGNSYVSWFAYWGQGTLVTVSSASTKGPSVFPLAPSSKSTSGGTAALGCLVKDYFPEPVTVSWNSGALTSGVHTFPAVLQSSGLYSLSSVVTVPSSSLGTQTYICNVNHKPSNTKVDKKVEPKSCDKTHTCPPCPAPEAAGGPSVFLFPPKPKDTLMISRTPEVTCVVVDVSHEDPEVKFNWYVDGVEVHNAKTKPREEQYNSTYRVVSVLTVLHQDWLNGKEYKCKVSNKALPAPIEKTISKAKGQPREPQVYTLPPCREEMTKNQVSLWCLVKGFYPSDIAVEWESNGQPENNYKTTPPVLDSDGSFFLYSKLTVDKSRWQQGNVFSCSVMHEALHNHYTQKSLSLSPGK
chain: B1 chain with N32S, K56R, A60S
notes: BCMAxCD3, Fab-Fc-VH (structure 11); CD3 Fab of PR003886, BCMA VH of PR004566; IgG1 knob/hole, LALA
B8: PR003873 (bispecific antibody, human IgG1, lambda, L234A L235A)
light: B1 light
heavy: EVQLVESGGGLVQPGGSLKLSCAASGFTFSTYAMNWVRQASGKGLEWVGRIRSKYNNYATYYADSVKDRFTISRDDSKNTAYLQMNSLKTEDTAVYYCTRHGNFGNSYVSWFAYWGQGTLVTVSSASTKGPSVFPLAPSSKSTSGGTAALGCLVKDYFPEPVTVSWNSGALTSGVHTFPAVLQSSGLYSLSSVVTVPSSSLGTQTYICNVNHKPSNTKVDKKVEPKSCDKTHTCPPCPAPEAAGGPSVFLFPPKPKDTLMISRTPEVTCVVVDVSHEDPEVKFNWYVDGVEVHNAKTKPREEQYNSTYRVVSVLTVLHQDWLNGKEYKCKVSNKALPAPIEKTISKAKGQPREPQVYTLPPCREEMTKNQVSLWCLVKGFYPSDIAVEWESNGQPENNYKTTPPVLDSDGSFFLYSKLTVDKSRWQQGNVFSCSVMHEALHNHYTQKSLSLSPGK
chain: B1 chain with N32A, K56R, Y59V
notes: BCMAxCD3, Fab-Fc-VH (structure 11); CD3 Fab of PR003886, BCMA VH of PR004568; IgG1 knob/hole, LALA
B9: PR003881 (bispecific antibody, human IgG1, lambda, L234A L235A)
light: B1 light
heavy: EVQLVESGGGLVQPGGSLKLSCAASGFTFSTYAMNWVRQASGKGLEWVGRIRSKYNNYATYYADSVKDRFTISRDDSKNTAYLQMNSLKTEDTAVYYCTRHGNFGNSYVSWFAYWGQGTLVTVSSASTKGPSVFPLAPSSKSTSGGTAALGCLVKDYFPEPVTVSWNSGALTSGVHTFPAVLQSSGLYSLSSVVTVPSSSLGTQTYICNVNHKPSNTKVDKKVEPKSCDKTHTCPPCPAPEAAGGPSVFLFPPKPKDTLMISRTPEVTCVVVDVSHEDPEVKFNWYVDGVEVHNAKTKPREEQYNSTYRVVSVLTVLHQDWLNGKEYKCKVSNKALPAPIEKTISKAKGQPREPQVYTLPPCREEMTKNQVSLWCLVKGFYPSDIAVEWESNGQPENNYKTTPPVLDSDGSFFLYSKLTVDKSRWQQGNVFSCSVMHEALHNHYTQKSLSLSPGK
chain: B1 chain with N32S, K56N, D102Q, R104L
notes: BCMAxCD3, Fab-Fc-VH (structure 11); CD3 Fab of PR003886, BCMA VH of PR004561; IgG1 knob/hole, LALA
B10: PR001991 (bispecific antibody, human IgG1, kappa, L234A L235A)
chain 1: B3 chain 1
chain 2: B3 chain 2
chain 3: EVQLLESGGGLVQPGGSLRLSCAASGFTFSSYAMIWVRQAPGKGLEWVSGISESGGSTYYADSVKGRFTISRDNSKNTLYLQMNSLRAEDTAVYFCVKDLDDILTGYYKDYWGQGTLVTVSSASEPKSSDKTHTCPPCPAPEAAGGPSVFLFPPKPKDTLMISRTPEVTCVVVDVSHEDPEVKFNWYVDGVEVHNAKTKPREEQYNSTYRVVSVLTVLHQDWLNGKEYKCKVSNKALGAPIEKTISKAKGQPREPQVCTLPPSREEMTKNQVSLSCAVKGFYPSDIAVEWESNGQPENNYKTTPPVLDSDGSFFLVSKLTVDKSRWQQGNVFSCSVMHEALHNHYTQKSLSLSPGK
notes: CD3 of PR000511, BCMA VH of PR000940; IgG1 knob/hole, AAG
B11: PR001992 (bispecific antibody, human IgG1, kappa, L234A L235A)
chain 1: B3 chain 1
chain 2: B3 chain 2
chain 3: EVQLVETGGGLIQPGGSLRLSCAASGFPVSSNYMSWVRQAPGKGLEWVSVIFSGGRTYYADSVKGRFTISRDNSKNTLYLQMNSLRAEDTAVYYCARRNWIDGRDAFDIWGQGTMVTVSSASEPKSSDKTHTCPPCPAPEAAGGPSVFLFPPKPKDTLMISRTPEVTCVVVDVSHEDPEVKFNWYVDGVEVHNAKTKPREEQYNSTYRVVSVLTVLHQDWLNGKEYKCKVSNKALGAPIEKTISKAKGQPREPQVCTLPPSREEMTKNQVSLSCAVKGFYPSDIAVEWESNGQPENNYKTTPPVLDSDGSFFLVSKLTVDKSRWQQGNVFSCSVMHEALHNHYTQKSLSLSPGK
notes: BCMAxCD3, Fab(cross VH/VL)-Fc-VH (structure 12); CD3 of PR000511, BCMA VH of PR000943; IgG1 knob/hole, AAG
B12: PR001993 (bispecific antibody, human IgG1, kappa, L234A L235A)
chain 1: B3 chain 1
chain 2: B3 chain 2
chain 3: B11 chain 3 with P28T, S35T, R56S, N99I, W100A, I101V, D102A, R104H, A106V
notes: BCMAxCD3, Fab(cross VH/VL)-Fc-VH (structure 12); CD3 of PR000511, BCMA VH of PR001035; IgG1 knob/hole, AAG

Biological target: T1, human BCMA
Test: FACS on NCI-H929 cells
Method: This example is intended to investigate the binding activity of anti-BCMA HCAb antibodies to human and cynomolgus monkey BCMAs. […] Specifically, HEK293T/hBCMA cells and HEK293T/cyno BCMA cells were digested and resuspended in a DMEM complete medium. In addition, NCI-H929 cell suspension was collected. The density of each of the three cells was adjusted to 1×10⁶ cells/mL. […] The cells were incubated at 4° C. for 1 h away from light. Thereafter, the cells in each well were rinsed twice with 100 μL of pre-cooled PBS, and centrifuged at 500 g at 4° C. for 5 min, and then the supernatant was discarded. […] The cells in each well were rinsed twice with 100 μL of pre-cooled PBS, and centrifuged at 500 g at 4° C. for 5 min, and then the supernatant was discarded. Finally, the cells in each well were resuspended in 200 μL of pre-cooled PBS. Fluorescence signal values were read using a BD FACS CANTOII flow cytometer or an ACEA NovoCyte flow cytometer, and the data were processed and analyzed using FlowJo v10 (FlowJo, LLC) software. The data were processed and analyzed by plotting using GraphPad Prism 8 software, and binding curves of the antibodies to target cells, EC₅₀ values and other parameters were obtained through four-parameter nonlinear fitting.

EC50 [nM]	Maximum MFI	Binder
4.6	8590	B1
7.3	17400	B2
	3430	B3
1.5	9240	B4
1.7	11100	B5
1.2	9840	B6
2	10600	B7
1.3	10200	B8
2.6	10300	B9
	1980	B10
	3210	B11
	1290	B12
